Publication PMC9889658, “The structure of MadC from Clostridium maddingley reveals new insights into class I lanthipeptide cyclases” (Frontiers in Microbiology, 2022)

Assays:
Conditions in all cases: both partners purified
[1] = target: T1, His6-MadC (hexa-histidine tagged cyclase MadC, wild type) (Clostridium sp. maddingley); assay: SPR; His6-MadC variant captured on a poly-NTA (Ni2+) chip to 400–500 RU; L3 injected at 180 nM to 30 μM; 200 mM NaCl, 50 mM HEPES/NaOH pH 8; affinity from the maximum RU values
T1 construct: MadC, class I lanthipeptide cyclase, Clostridium sp. maddingley, NCBI EKQ50560.1, in pET28b(+) with N-terminal His6-tag and thrombin cleavage site; Thrombin cleavage site between the tag and MadC; Captured by the His-tag on the Ni-NTA chip in SPR; also the crystallised form (PDB 8BYK); also called wild-type MadC; not shown: His6, N-terminal, kept

[2] = target: T2, MadC (lanthionine cyclase of Clostridium sp. maddingley), His6-tag cleaved off (Clostridium sp. maddingley); assay: ITC; MadC (200–600 μM) in the syringe, 20 injections of 2 μl into the cell with the leader variant (20–60 μM); 25°C; 50 mM HEPES, 500 mM NaCl, pH 7.5; at least triplicate
T2 construct: MadC, class I lanthipeptide cyclase, Clostridium sp. maddingley, NCBI EKQ50560.1, synthetic gene from GenScript in pET28b(+); calculated molecular weight 49.71 kDa; also called cleaved MadC; class I cyclase MadC; not shown: His6, N-terminal, cleaved

[3] = target: T2, MadC (lanthionine cyclase of …); assay: as above; remark: listed apart in the source

## MGKLDDFDLDVKVKADTTKVGPAITSKSLCTPG (synthetic, unmodified peptide (no lanthionine rings); MadA 1-33 from Table S4) [maddinglicin leader peptide construct madL3, Leader 3 (−23 − +10)]
[1]
  Kd: 16 ± 7 µM
[2]
  Kd: 5.69 µM

## MGKLDDFDLDVKVKADTTKVGPA [maddinglicin leader peptide construct madL1, Leader 1 (−23 – −1)]
[3]
  Kd: 10.5 ± 4.3 µM
[2]
  Kd: 10.4 µM

## MGKLDDFDLDVKVKADTTKVGPAITSKS [maddinglicin leader peptide construct madL2, Leader 2 (−23 − +5)]
[2]
  Kd: 9.35 µM
